From patent US20130210673A1 (published 2013)

T1: human C-reactive protein (human, UniProt P02741 19-224, biotinylated or conjugated to AlexaFluor488 for labeling)
T1 construct: Bought protein; also called CRP; C-RP
T1 sequence (looked up): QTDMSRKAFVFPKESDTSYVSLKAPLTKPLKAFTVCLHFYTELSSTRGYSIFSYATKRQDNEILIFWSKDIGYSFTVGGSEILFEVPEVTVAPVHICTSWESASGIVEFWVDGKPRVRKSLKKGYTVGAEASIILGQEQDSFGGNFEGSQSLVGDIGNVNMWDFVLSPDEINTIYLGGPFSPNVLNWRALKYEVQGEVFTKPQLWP

B1: SEQ ID NO 238 (peptide)
peptide: YWVCMNVCMYYTARQ
notes: insert only
B2: SEQ ID NO 253 (peptide)
peptide: MIFNSRGFLSLMSSG
notes: insert only
B3: SEQ ID NO 256 (peptide)
peptide: FPIYNQRGFITLASP
notes: insert only
B4: SEQ ID NO 237 (peptide)
peptide: ICSYVMYTTCFLRVY
notes: insert only
B5: SEQ ID NO 239 (peptide)
peptide: LPVWCVMHVCLTSSR
notes: insert only
B6: SEQ ID NO 234 (peptide)
peptide: ICSYVMYTTCFLRVY
notes: insert only
B7: SEQ ID NO 255 (peptide)
peptide: EWACNDRGFNCQLQR
notes: insert only
B8: SEQ ID NO 233 (peptide)
peptide: TVLICMNICWTGETQ
notes: insert only
B9: SEQ ID NO 235 (peptide)
peptide: RLEICQNVCYYLGTL
notes: insert only
B10: SEQ ID NO 241 (peptide)
peptide: NEWYCQNVCERMPHS
notes: insert only
B11: SEQ ID NO 232 (peptide)
peptide: RLEICQNVCYYLGTL
notes: insert only
B12: SEQ ID NO 236 (peptide)
peptide: TVLICMNICWTGETQ
notes: insert only
B13: SEQ ID NO 245 (peptide)
peptide: IMMECFYVCTIANTQ
notes: insert only
B14: SEQ ID NO 244 (peptide)
peptide: ADTICWYVCTISVHA
notes: insert only
B15: SEQ ID NO 242 (peptide)
peptide: TWVQCTMVCYGMSTT
notes: insert only
B16: SEQ ID NO 247 (peptide)
peptide: YPPRFQYYRFYYRGP
notes: insert only

Assays:
[1] = biological target: T2, streptavidin (UniProt P22629 37-163, limits assumed); test: bacterial display selection
T2 construct: Used as streptavidin-phycoerythrin in flow cytometry and as coated beads for YFP-SA-1; also called SA; streptavidin-phycoerythrin

[2] = biological target: T1, human C-reactive protein; test: bacterial display selection
[3] = biological target: T2, streptavidin; test: flow cytometry, equilibrium
Experimental: The corresponding mean fluorescence versus concentration data were fit to a monovalent binding isotherm to obtain the apparent KD. Dissociation rates of streptavidin-binding clones were measured in the presence of about 1 to about 2 μM biotin. Cells were labeled with 50 nM streptavidin-phycoerythrin for 30 minutes at room temperature. The cells were then pelleted, resuspended in PBS with biotin, and immediately analyzed by flow cytometry. Fluorescence data were collected continuously for about five minutes. The dissociation rate constants were then determined as described previously. See Daugherty, P. S., et al. (1998) Protein Eng. 11(9):825-832, which is herein incorporated by reference.

T2 sequence (P22629 37-163 limits assumed): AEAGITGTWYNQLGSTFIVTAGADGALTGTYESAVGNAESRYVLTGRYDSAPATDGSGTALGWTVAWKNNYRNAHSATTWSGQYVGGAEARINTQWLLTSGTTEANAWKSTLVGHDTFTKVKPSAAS

| Binder | binding result [1] | further results |
| --- | --- | --- |
| B1 | binds |  |
| B2 |  | binding result [2]: binds |
| B3 |  | binding result [2]: binds |
| B4 | binds |  |
| B5 | binds |  |
| B6 |  | binding result [3]: binds |
| B7 |  | binding result [2]: binds |
| B8 |  | binding result [3]: binds |
| B9 | binds |  |
| B10 | binds |  |
| B11 |  | binding result [3]: binds |
| B12 | binds |  |
| B13 | binds |  |
| B14 | binds |  |
| B15 | binds |  |
| B16 |  | binding result [2]: binds |
